Measurements from US20170334973A1.
pEC50: −log10 of the molar value. Read-outs that look alike come from different tables or passages of the source.

Legend:
EBOV GPdTM (Ebola virus) [1] = biological target: EBOV GPdTM (Ebola virus) (UniProt Q05320)
RESTV GP (Reston virus) [2] = biological target: RESTV GP (Reston virus) (UniProt Q66799)
SUDV GPdTM (Sudan virus) [3] = biological target: SUDV GPdTM (Sudan virus) (UniProt Q66814)
EBOV GPdTM (Ebola virus) [4] = biological target: EBOV GPdTM (Ebola virus) (UniProt Q05320); remark: listed apart in the source
SUDV GPdTM (Sudan virus) [5] = biological target: SUDV GPdTM (Sudan virus) (UniProt Q66814); remark: listed apart in the source
EBOV GPdTM (Ebola virus) [6] = biological target: EBOV GPdTM (Ebola virus) (UniProt Q05320); remark: listed apart in the source
RESTV GP (Reston virus) [7] = biological target: RESTV GP (Reston virus) (UniProt Q66799); remark: listed apart in the source
SUDV GPdTM (Sudan virus) [8] = biological target: SUDV GPdTM (Sudan virus) (UniProt Q66814); remark: listed apart in the source

Substance: FVM09 (antibody)
- EC50 (EBOV GPdTM (Ebola virus) [1]): 0.008 µg/mL
- EC50 (RESTV GP (Reston virus) [2]): 0.01 µg/mL
- EC50 (SUDV GPdTM (Sudan virus) [3]): 0.011 µg/mL
- pEC50 (EBOV GPdTM (Ebola virus) [4]): 8.14
- pEC50 (SUDV GPdTM (Sudan virus) [5]): 8.01
- EC50 (EBOV GPdTM (Ebola virus) [6]): < 0.015 µg/mL
- EC50 (RESTV GP (Reston virus) [7]): < 0.015 µg/mL
- EC50 (SUDV GPdTM (Sudan virus) [8]): < 0.015 µg/mL
